Data on one molecule can be found in article PMC9887734, “Meeting abstracts from the 10th International Conference on cGMP: Generators, Effectors and Therapeutic Implications” (Journal of Translational Medicine, 2023).

In general, stoichiometry N refers to a count of units in the complex or per binding partner.

The target in data set [1] is T1, CNGB3 subunit of the human cone photoreceptor CNG channel (human, UniProt Q9NQW8 1-809).
T1 construct: CNGB3, human cone photoreceptor cyclic nucleotide-gated channel subunit; One copy stands in the CNGA3/CNGB3 channel
T1 sequence (looked up): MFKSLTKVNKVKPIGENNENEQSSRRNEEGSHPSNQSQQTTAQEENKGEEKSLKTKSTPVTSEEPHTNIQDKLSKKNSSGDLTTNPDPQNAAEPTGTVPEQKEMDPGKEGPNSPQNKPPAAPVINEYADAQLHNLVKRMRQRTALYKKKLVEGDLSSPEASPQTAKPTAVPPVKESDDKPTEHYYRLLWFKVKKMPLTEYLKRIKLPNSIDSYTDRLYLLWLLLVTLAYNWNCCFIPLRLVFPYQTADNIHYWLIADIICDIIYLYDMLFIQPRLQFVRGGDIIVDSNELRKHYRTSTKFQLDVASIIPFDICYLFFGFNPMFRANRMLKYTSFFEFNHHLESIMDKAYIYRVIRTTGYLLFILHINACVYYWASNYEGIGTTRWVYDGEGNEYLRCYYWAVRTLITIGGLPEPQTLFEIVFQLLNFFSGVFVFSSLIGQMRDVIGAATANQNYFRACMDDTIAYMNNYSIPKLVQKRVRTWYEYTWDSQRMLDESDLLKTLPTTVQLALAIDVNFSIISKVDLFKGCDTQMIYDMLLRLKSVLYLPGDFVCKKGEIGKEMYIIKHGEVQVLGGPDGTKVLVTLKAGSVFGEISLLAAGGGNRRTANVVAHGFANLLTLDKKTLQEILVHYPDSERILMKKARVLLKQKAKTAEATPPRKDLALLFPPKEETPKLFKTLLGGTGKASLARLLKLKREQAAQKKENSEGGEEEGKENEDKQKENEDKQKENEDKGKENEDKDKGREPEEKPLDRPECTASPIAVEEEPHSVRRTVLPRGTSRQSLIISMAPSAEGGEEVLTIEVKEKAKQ
Briefly: cryo-EM structure; human cone photoreceptor CNG channel CNGA3/CNGB3 in the apo state. Conditions: both partners purified.

Data set [2] concerns the molecule itself. The data set is described as above.

B1: CNGA3 subunit of the human cone photoreceptor CNG channel (natural protein, UniProt Q16281 1-694, looked up)
chain: MAKINTQYSHPSRTHLKVKTSDRDLNRAENGLSRAHSSSEETSSVLQPGIAMETRGLADSGQGSFTGQGIARLSRLIFLLRRWAARHVHHQDQGPDSFPDRFRGAELKEVSSQESNAQANVGSQEPADRGRSAWPLAKCNTNTSNNTEEEKKTKKKDAIVVDPSSNLYYRWLTAIALPVFYNWYLLICRACFDELQSEYLMLWLVLDYSADVLYVLDVLVRARTGFLEQGLMVSDTNRLWQHYKTTTQFKLDVLSLVPTDLAYLKVGTNYPEVRFNRLLKFSRLFEFFDRTETRTNYPNMFRIGNLVLYILIIIHWNACIYFAISKFIGFGTDSWVYPNISIPEHGRLSRKYIYSLYWSTLTLTTIGETPPPVKDEEYLFVVVDFLVGVLIFATIVGNVGSMISNMNASRAEFQAKIDSIKQYMQFRKVTKDLETRVIRWFDYLWANKKTVDEKEVLKSLPDKLKAEIAINVHLDTLKKVRIFQDCEAGLLVELVLKLRPTVFSPGDYICKKGDIGKEMYIINEGKLAVVADDGVTQFVVLSDGSYFGEISILNIKGSKSGNRRTANIRSIGYSDLFCLSKDDLMEALTEYPEAKKALEEKGRQILMKDNLIDEELARAGADPKDLEEKVEQLGSSLDTLQTRFARLLAEYNATQMKMKQRLSQLESQVKGGGDKPLADGEVPGDATKTEDKQQ
notes: CNGA3, human cone photoreceptor cyclic nucleotide-gated channel subunit; Three copies stand in the CNGA3/CNGB3 channel whose cryo-EM structure (apo state) is reported
With B1, the “stoichiometry N” value in data set [1] was 3 CNGA3 per CNGB3. In addition, the binding result in data set [2] was “binds”.
